Reference: article PMC3406927

Experiments:
[1] = molecular target: TLR5-N14VLR (zebrafish, Danio rerio | hagfish) (UniProt B3DIN1); experiment: fluorescence polarisation
[2] = molecular target: drTLR5-ECD (zebrafish, Danio rerio); experiment: fluorescence polarisation

CBLB502-ΔD0 (from UniProt Q06971 1-505) (ligand)
fold change in binding affinity (against CBLB502) [1]: 2 to 3 fold
fold change in binding affinity (against CBLB502) [2]: 2 to 3 fold
